The values below come from publication PMC9016069, “Inosine triphosphate pyrophosphatase from Trypanosoma brucei cleanses cytosolic pools from deaminated nucleotides” (Scientific Reports, 2022).

Common to all, as to assay: HPLC (MonoQ) product analysis, fit to substrate inhibition model
Series [1] concerns the target T1, TbITPA (Trypanosoma brucei, UniProt Q389X7).
T1 construct: gene Tb10.6k15.0290; homodimer 48 kDa by gel filtration
T1 sequence (Q389X7 87-287): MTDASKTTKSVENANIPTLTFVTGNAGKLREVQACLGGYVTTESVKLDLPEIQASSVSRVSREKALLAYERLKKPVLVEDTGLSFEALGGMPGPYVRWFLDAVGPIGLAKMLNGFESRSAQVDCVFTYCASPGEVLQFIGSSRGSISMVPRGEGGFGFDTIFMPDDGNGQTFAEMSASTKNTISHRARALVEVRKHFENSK
It is filed as biochemical. Particulars: substrate inhibition constant; 5 mM MgCl2, 20 mM Tris-HCl pH 7.5, 0.1 mg/mL BSA, 1 mM DTT, 25 °C. The source says:
HPLC (MonoQ) product analysis, fit to substrate inhibition model on TbITPA

Substrate in series [2]: O=P(O)(O)OP(=O)(O)OP(=O)(O)OC[C@H]1O[C@@H](n2cnc3c(O)ncnc32)[C@H](O)[C@@H]1O
It is filed as biochemical, Trypanosoma brucei. Particulars: 5 mM MgCl2, 20 mM Tris-HCl pH 7.5, 0.1 mg/mL BSA, 1 mM DTT, 25 °C.

Substrate in series [3]: O=c1[nH]c(=O)c2ncn([C@@H]3O[C@H](COP(=O)(O)OP(=O)(O)OP(=O)(O)O)[C@@H](O)[C@H]3O)c2[nH]1
It is filed as biochemical, Trypanosoma brucei. Particulars: 5 mM MgCl2, 20 mM Tris-HCl pH 7.5, 0.1 mg/mL BSA, 1 mM DTT, 25 °C.

Substrate in series [4]: O=c1[nH]cnc2c1ncn2[C@H]1C[C@H](O)[C@@H](COP(=O)(O)OP(=O)(O)OP(=O)(O)O)O1
In kind it is biochemical, Trypanosoma brucei. The conditions noted are these: 5 mM MgCl2, 20 mM Tris-HCl pH 7.5, 0.1 mg/mL BSA, 1 mM DTT, 25 °C.

Substrate in series [5]: NC(=O)c1ncn([C@@H]2O[C@H](CO[P@@](=O)(O)O[P@](=O)(O)OP(=O)(O)O)[C@@H](O)[C@H]2O)n1
It is filed as biochemical, Trypanosoma brucei. The conditions noted are these: 5 mM MgCl2, 20 mM Tris-HCl pH 7.5, 0.1 mg/mL BSA, 1 mM DTT, 25 °C.

For `O=c1[nH]c(=O)c2ncn([C@@H]3O[C@H](COP(=O)(O)OP(=O)(O)OP(=O)(O)O)[C@@H](O)[C@H]3O)c2[nH]1` [XTP], the “Ki (μM)^a” value in series [1] turned out to be 951 ± 220 µM.
`O=c1[nH]cnc2c1ncn2[C@H]1C[C@H](O)[C@@H](COP(=O)(O)OP(=O)(O)OP(=O)(O)O)O1` [dITP]: the “Ki (μM)^a” value in series [1] turned out to be 98 ± 42 µM.
For `O=c1[nH]cnc2c1ncn2[C@@H]1O[C@H](COP(=O)(O)OP(=O)(O)OP(=O)(O)O)[C@@H](O)[C@H]1O` [ITP], the “Ki (μM)^a” value in series [1] amounted to 824 ± 275 µM.

B1: TbITPA (Trypanosoma brucei brucei TREU927) (protein)
chain: T1 sequence (Q389X7 87-287)
notes: homodimer 48 kDa by gel filtration
As for B1, the Michaelis-Menten constant (Km) in series [2] turned out to be 17 ± 3 µM; in series [3], 27 ± 4 µM; in series [4], 44 ± 18 µM; in series [5], 75 ± 24 µM. In addition, the kcat worked out at 59 ± 5 s⁻¹ in series [2], 37 ± 2 s⁻¹ in series [3], 280 ± 74 s⁻¹ in series [4] and 100 ± 14 s⁻¹ in series [5]. Moreover, the kcat/Km in series [2] amounted to 3.5e+06 M⁻¹ s⁻¹; in series [3], 1.4e+06 M⁻¹ s⁻¹; in series [4], 6.4e+06 M⁻¹ s⁻¹.

Broadly, the Km is the concentration of substrate that gives half-maximal velocity. By kcat is commonly meant the number of substrate molecules converted per active site and unit of time at saturation. In general, kcat/Km refers to the second-order rate constant that governs catalysis at low substrate concentration.
